This is an account of results in the supplement of paper PMC12455559.

± gives the standard deviation of the averaged measurements.

Data set [1] is described as follows: melting temperature (DSF); higher = more thermostable. A digest of the protocol: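 Enzymes made in E. coli C41(DE3) were nickel-bead purified and cut free with SUMO protease before testing. Differential scanning fluorimetry gave each melting temperature. For this, 5 μL 5X Sypro Orange was added to 45 μL enzyme (0 to 0.3 mg/mL) in sealed PCR plates, and a Bio-Rad CFX96 read fluorescence from 25 °C over 250 cycles of 0.3 °C each, ramping at 0.3 °C/s.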

Data set [2] is described as follows: purified protein yield per well (BCA); higher = higher soluble expression. In a few lines: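 Candidate enzymes were made in 2 mL autoinduction cultures of E. coli C41(DE3) with 100 µg/mL kanamycin, at 37 °C for 2 h and then 18 °C for 40 h, and purified with Ni-charged magnetic beads and SUMO protease cleavage. The Pierce Rapid Gold BCA kit gave purified protein yield per well. Values lower than 25 ug (0.1 mg/mL) are below the detection threshold.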

Data set [3] in a line: PET hydrolysis, aromatic products released after 48 h (umol product/mg enzyme); higher = more PET depolymerization activity. In a few lines: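 Tagless, SUMO-cleaved candidate enzymes were purified on nickel beads, and 5 μg (50 μL) was added to 3.5 mg amorphous PET film or crystalline PET powder in 450 μL buffer. Buffers were 50 mM NaCitrate (pH 4.5, 5.5), 50 mM NaPhosphate (pH 6.5, 7.5) or glycine (pH 8.5). Sealed plates were incubated 48 h at 40 or 60 °C without shaking. PET hydrolysis activity is the aromatic product in the supernatant, read by absorbance at 260 and 280 nm against buffer blanks and expressed per mg enzyme.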

[4] abbreviates: substrate: aFilm, 40 °C, pH 4.5.
The mark [5] stands for this setting: substrate: aFilm, 40 °C, pH 5.5.
The mark [6] stands for this setting: substrate: aFilm, 40 °C, pH 6.5.
The mark [7] stands for this setting: substrate: aFilm, 40 °C, pH 7.5.
The mark [8] stands for this setting: substrate: aFilm, 60 °C, pH 4.5.
The mark [9] stands for this setting: substrate: aFilm, 60 °C, pH 5.5.
Where [10] appears, read: substrate: aFilm, 60 °C, pH 6.5.
Setting [11] is: substrate: aFilm, 60 °C, pH 7.5.
Where [12] appears, read: substrate: cryPow, 40 °C, pH 4.5.
Where [13] appears, read: substrate: cryPow, 40 °C, pH 5.5.
Where [14] appears, read: substrate: cryPow, 40 °C, pH 6.5.
Where [15] appears, read: substrate: cryPow, 40 °C, pH 7.5.
The mark [16] stands for this setting: substrate: cryPow, 60 °C, pH 4.5.
Setting [17] is: substrate: cryPow, 60 °C, pH 5.5.
Setting [18] is: substrate: cryPow, 60 °C, pH 6.5.
[19] abbreviates: substrate: cryPow, 60 °C, pH 7.5.

Take “AEAADNPYQRGPDPTLASVAATRGPFATAQATVPAGNGFNGGYVYYPTDTSLGTWGAVAIVPGYSALFADEEAWMGPWLASFGFVVLGIETNSRTDGADARATQLLAALDYLTQSSPVRHRVDANRLGVMGHSAGGAGTLMAALRRPSLKSAVGLAPGAPGNSLNMSTTQVPTMLISGQNDGTVTPSYVQGIYNTLPATVEHAWAELAGNDHLSFTRPNPTEMRILIPWLKIFLDNDTRYTQFLCPLADSTGVSRYSATCPLVPPGGPTAPPTVTPPPPTPTTPSPTTPPTSAACTATYRTVNSWSGGFQGEVTVTAGRAAINGWTVRWDLGNGQSISQVWNGTLSTSGSTATVRNVSYNGSLAPAASTGFGFLGTGAPAIPRLTCTSP [ESM037]”: the melting temperature in data set [1] came to 73.3 C. Besides, in data set [2], the “purified protein yield per well” value was 358 µg. Also, the PET hydrolysis in data set [3] (setting [4]), in data set [3] (setting [5]), in data set [3] (setting [6]), in data set [3] (setting [7]), in data set [3] (setting [8]) and in data set [3] (setting [9]) was below 3 in each case. Further, the PET hydrolysis in data set [3] (setting [10]), in data set [3] (setting [11]), in data set [3] (setting [12]), in data set [3] (setting [13]), in data set [3] (setting [14]) and in data set [3] (setting [15]) was below 3 throughout. For the same sequence, the PET hydrolysis in data set [3] (setting [16]), in data set [3] (setting [17]), in data set [3] (setting [18]) and in data set [3] (setting [19]) was below 3 throughout.

As to “ADNPYERGPNPTQASIAASRGTFATAEVSVGGGNGFAAAKIYYPTDTSQGTFGAIAIVPGYTATWAAEGAWMGPWLASFGFVVIGIDTLSRNDFDTARGTQLLAALDYLTQRSSVRSRVDASRLAVMGHSMGGGGAISAALRRPSLKAAVGLAPFSPSQGTSGMRVPSMLLAGQRDGTVTPSSVRNLYNAIPATTEKAYLELTGAGHGFPTSANSVMMRKVIPWLKIFVDQDTRYQQFLCPLVDWTGITSYQSSCPLIPGGSTGTTYNLVNSSGKCADVNAASQVNGAALLLWTCHTNPNQRWTETSAKELRVYDNPKCMDAGAAQQGTRVTINSCSGGGSQKWTVNANGTVTNDLSGRCLGAAGGATTDNTPLVVASCDGSPGQQWTKQS [TEP093]”, the melting temperature in data set [1] came to 69.7 C. Besides, in data set [2], the “purified protein yield per well” value is 166 µg. In addition, the PET hydrolysis is 4 in data set [3] (setting [12]); 12 in data set [3] (setting [13]); 31 in data set [3] (setting [14]); 28 in data set [3] (setting [15]); below 3 in data set [3] (setting [16]); 4 in data set [3] (setting [17]). The PET hydrolysis in data set [3] (setting [18]) and in data set [3] (setting [19]) was 7 throughout.

In the case of “MIATIPDGSAAAAADDNPYQRGPDPTVASVAAQYGPFATAQITVPPGNGFNGGFIYYPTDTSHTYGAVAIVPGYTALFANEEAWMGPRLASFGFVVIGVETNSRNDYDTARGTQLLAALDYLTNSSAVRDRVDRNRLAVIGHSMGGGGSLYAATQRPSLKAAIGLAPFKPSGNLASDTVPTMIIGGINDTTVTPSYLDGLYPTLPAATPGAYLQLANADHLYFTRPNDIELRSQIEWLKIFVDNDARYTQFLCPSIKDTTGIARSNVKCSTIPSGGSTPPSSPPPVPSGPQRILAAQSGRCVDVPNATHNNGTRVQLYDCNGQANQQWTSTSSKQLTVYGNVCLDAAGSGNGAAVQIYSCNGQSNQQWNVNANGTITGVQSGRCLDVWGTGNGQQIQLWDCNGQANQRFSLS [TEP181]”, the melting temperature in data set [1] turned out to be 50.2 C. Further, the “purified protein yield per well” value in data set [2] turned out to be 249 µg. For the same sequence, the PET hydrolysis in data set [3] (setting [4]), in data set [3] (setting [5]), in data set [3] (setting [6]), in data set [3] (setting [7]), in data set [3] (setting [8]) and in data set [3] (setting [9]) was below 3 each time. In addition, the PET hydrolysis in data set [3] (setting [10]) is below 3; in data set [3] (setting [11]), below 3; in data set [3] (setting [12]), 4.5 ± 0.71; in data set [3] (setting [13]), 12.5 ± 0.71; in data set [3] (setting [14]), 11 ± 1.4; in data set [3] (setting [15]), below 3. The PET hydrolysis in data set [3] (setting [16]), in data set [3] (setting [17]), in data set [3] (setting [18]) and in data set [3] (setting [19]) was below 3 each time.

With “DQGPPPTIASLSVDGAYAVMTYTDIPDVPEFGDATVYYPVDTAMPIGGVAISPGWTELQRHIEWWGPRLASHGYAVLILDTNDAMADQPEQRAEALIAAVRILRGENDRAGSPLSGRIDTEKMAIMGHSMGGGGVLIAANNYPAEIQAAIPFTPWQPAGDFSQVVAPTLVMAGSADRVASVSDHAWPHYQSIPESTIKVFLEIDGGSHFIADTSRGEDLGTIGRYGIAWLKLYLDGDERYRGFIYGDEAASDSEKFSRYVTSP [TEP021]”, the melting temperature in data set [1] amounted to 30.7 C. In addition, the “purified protein yield per well” value in data set [2] was determined as 76.5 µg. The PET hydrolysis in data set [3] (setting [12]), in data set [3] (setting [13]), in data set [3] (setting [14]), in data set [3] (setting [15]), in data set [3] (setting [16]) and in data set [3] (setting [17]) was below 3 throughout. Besides, the PET hydrolysis in data set [3] (setting [18]) and in data set [3] (setting [19]) was below 3 throughout.

On to “TDNPHQRGPNPSQASISANRGTFATAETSVGSGNGFGAAKIYYPTDTGQGTFGAIAVSPGYTATWAAEGAWMGHWLASFGFVVIGIDTINRNDFDVARGTQLLAALDYLTQRSSVRTRVDPSRLAVMGHSMGGGGTISAALRRPTLKAAIGLAPYSPSQTTTGMQVPTVLLAGQNDGTSTPASIITLHNNIPASTEKAYLELTGAGHGFPTSNNSVVTRKVIPWMKIFIDQDTRYTQFLCPLQDWTGIRSYRNSCPLLPNDPGTTFSLAGSASGKCVDVPGRVQTNGTGLIIWTCNGAANQHWTRTAAGELRIYGNSKCMDASGQGARVTINSCNGGSGQKWTVGTNGTVTNAASAGCLDTGGTADNAPVIVTTCNGGSGQIWIKRS [ESM184]”, for which the melting temperature in data set [1] was 43 C. Moreover, the “purified protein yield per well” value in data set [2] amounted to 34 µg. The PET hydrolysis in data set [3] (setting [12]), in data set [3] (setting [13]), in data set [3] (setting [14]) and in data set [3] (setting [15]) was below 3 in each case.

In data set [1], “MNAVGPTTPPTTTPPTTPAGDNPYQRGPDPTVASVAAQYGPFATAQITVPPGNGFNGGFIYYPTDSSHTYGAVAIVPGYTALFADEEAWMGPRLASFGFVVIGVETNSRTDYDTARGTQLLAALDYLTNSSAVRDRVDRNRLAVIGHSMGGGGALYAATQRPSLKAAIGLAPFKPSGNLASDTVPTMIIGGINDTTVTPSYLDGLYPTLPAATPGAYLQLANADHLYFTRPNDIEMRSQIEWLKIFVDNDTRYTPFLCPSIKDTTGIVRSNVKCSTIPGGGSTSPPTTTPPPAGSNRIVGAQSGRCVDVPGASQTNGTRVQLYDCNGQPNQAWTLTASKQLTVYGSRCLDAAGSGNGSAVQIYSCNGQANQQWNVNANGTITGVQSGRCLDVWGTGNGQQVQIYDCNGQANQRFGLS [ESM052]” came in with a melting temperature of 61.6 C. In data set [2], the “purified protein yield per well” value amounted to 248 µg. The PET hydrolysis in data set [3] (setting [4]) was 4.5 ± 0.71; in data set [3] (setting [5]), 7.5 ± 0.71; in data set [3] (setting [6]) it was below 3; in data set [3] (setting [7]), below 3; in data set [3] (setting [8]) it was below 3; in data set [3] (setting [9]) it was below 3. The PET hydrolysis in data set [3] (setting [10]) is below 3; in data set [3] (setting [11]) it was below 3; in data set [3] (setting [12]) it was 13.5 ± 2.1; in data set [3] (setting [13]), 28.5 ± 2.1; in data set [3] (setting [14]), 36.5 ± 3.5; in data set [3] (setting [15]), 17.5 ± 7.8. In addition, the PET hydrolysis in data set [3] (setting [16]) was below 3; in data set [3] (setting [17]) it was 7.5 ± 0.71; in data set [3] (setting [18]), 5.5 ± 0.71; in data set [3] (setting [19]), below 3.
